In patent US20150307603A1 (MODIQUEST B V, published 2015):
Non-standard residues stand in square brackets, D forms with d. No end group written: not given here. Cit = NC(=O)NCCC[C@H](N)C(=O)O

Tests used:
msFibβ XG [1] = molecular target: T1, msFibβ XG (mouse, also: biotin-labelled); assay: ELISA, Ab 0.00064 ug/well
T1 construct: also called mouse fibrinogen β peptide
T1 peptide: EPTDSLDA[Cit]GHRPVDRR
Method: (§1) Biotin and citrulline-containing peptides derived from fibrinogen and vimentin were immobilized on NEUTRAVIDIN®-coated 96-well ELISA plates (0.3 μg/well). CFC-1 and CFC-0 were coated at the same concentration and served as positive and negative controls, respectively, for specific anti-citrulline reactivity and as coating controls. Non-coated wells were used to test for aspecific binding of the antibodies. […] Detection of bound anti-citrulline antibodies was performed by incubating the wells with rabbit anti-human HRP (1:2000) for 1 hour at RT followed by incubation with TMB substrate. The resulting OD (y-axis) is a measure for antibody binding.
(§2) Biotin-labeled and citrulline-containing fibrinogen and vimentin peptides (Table 5) were also tested for reactivity with the therapeutic antibodies. Peptides were coated on 96-well NEUTRAVIDIN®-ELISA plates.

CFC-1 [2] = molecular target: T2, CFC-1; assay: ELISA, Ab 0.00064 ug/well
T2 construct: Positive control for anti-citrulline reactivity; also called cfc1 XG; Cfc1-peptide
Method: as §1, §2

huFibα XH [3] = molecular target: T3, huFibα XH (human, X at position 15 = citrulline; biotin-labelled); assay: ELISA, Ab 0.00064 ug/well
T3 peptide: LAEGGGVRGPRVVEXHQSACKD
Method: as §1, §2

msFibα XG [4] = molecular target: T4, msFibα XG (mouse, X at position 8 = citrulline; biotin-labelled); assay: ELISA, Ab 0.00064 ug/well
T4 peptide: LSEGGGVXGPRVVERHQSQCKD
Method: as §1, §2

msFibα XH [5] = molecular target: T5, msFibα XH (mouse, X at position 15 = citrulline; biotin-labelled); assay: ELISA, Ab 0.00064 ug/well
T5 peptide: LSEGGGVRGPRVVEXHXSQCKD
Method: as §1, §2

huFibα XG [6] = molecular target: T6, huFibα XG (human, X at position 8 = citrulline; biotin-labelled); assay: ELISA, Ab 0.00064 ug/well
T6 peptide: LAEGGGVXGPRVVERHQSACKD
Method: as §1, §2

msVim XS/XL [7] = molecular target: T7, msVim XS/XL (mouse, also: biotin-labelled); assay: ELISA, Ab 0.00064 ug/well
T7 construct: also called mouse vimentin peptide
T7 peptide: YVT[Cit]SSAV[Cit]L[Cit]SSVP
Method: as §1, §2

huFibα XH [8] = molecular target: T3, huFibα XH; assay: ELISA, Ab 0.000128 ug/well
Method: as §1, §2

[9] = molecular target: T8, peptide no. 6 (human histone 2A) (human, also: biotin-labelled); assay: ELISA, Ab 0.4 ug/well
T8 construct: also called peptide 6
T8 peptide: VHRLL[Cit]KGNYSE
Method: as §1, with “histone 2A” for “fibrinogen and vimentin”

[10] = molecular target: T9, peptide no. 9 (human histone 2A) (human, also: biotin-labelled); assay: ELISA, Ab 0.4 ug/well
T9 construct: also called peptide 9
T9 peptide: DNKKT[Cit]IIPRHL
Method: as §1, with “histone 2A” for “fibrinogen and vimentin”

CFC-1 [11] = molecular target: T2, CFC-1; assay: ELISA, Ab 0.4 ug/well
Method: as §1, with “histone 2A” for “fibrinogen and vimentin”

[12] = molecular target: T10, peptide no. 4 (human histone 2A) (human, also: biotin-labelled); assay: ELISA, Ab 0.4 ug/well
T10 construct: also called peptide 4
T10 peptide: QFPVG[Cit]VHRLLR
Method: as §1, with “histone 2A” for “fibrinogen and vimentin”

[13] = molecular target: T11, peptide no. 10 (human histone 2A) (human, also: biotin-labelled); assay: ELISA, Ab 0.4 ug/well
T11 construct: also called peptide 10
T11 peptide: TRIIP[Cit]HLQLAI
Method: as §1, with “histone 2A” for “fibrinogen and vimentin”

[14] = molecular target: T12, peptide no. 7 (human histone 2A) (human, also: biotin-labelled); assay: ELISA, Ab 0.4 ug/well
T12 construct: also called peptide 7
T12 peptide: GNYSE[Cit]VGAGAP
Method: as §1, with “histone 2A” for “fibrinogen and vimentin”

[15] = molecular target: T13, peptide no. 3 (human histone 2A) (human, also: biotin-labelled); assay: ELISA, Ab 0.4 ug/well
T13 construct: also called peptide 3
T13 peptide: KSRSS[Cit]AGLQFP
Method: as §1, with “histone 2A” for “fibrinogen and vimentin”

[16] = molecular target: T14, peptide no. 2 (human histone 2A) (human, also: biotin-labelled); assay: ELISA, Ab 0.4 ug/well
T14 construct: also called peptide 2
T14 peptide: AKAKS[Cit]SSRAGL
Method: as §1, with “histone 2A” for “fibrinogen and vimentin”

[17] = molecular target: T15, peptide no. 5 (human histone 2A) (human, also: biotin-labelled); assay: ELISA, Ab 0.4 ug/well
T15 construct: also called peptide 5
T15 peptide: VGRVH[Cit]LLRKGN
Method: as §1, with “histone 2A” for “fibrinogen and vimentin”

[18] = molecular target: T16, peptide no. 11 (human histone 2A) (human, also: biotin-labelled); assay: ELISA, Ab 0.4 ug/well
T16 construct: also called peptide 11
T16 peptide: LQLAI[Cit]NDEELN
Method: as §1, with “histone 2A” for “fibrinogen and vimentin”

[19] = molecular target: T17, peptide no. 8 (human histone 2A) (human, also: biotin-labelled); assay: ELISA, Ab 0.4 ug/well
T17 construct: also called peptide 8
T17 peptide: AGNAA[Cit]DNKKTR
Method: as §1, with “histone 2A” for “fibrinogen and vimentin”

[20] = molecular target: T18, peptide no. 12 (human histone 2A) (human, also: biotin-labelled); assay: ELISA, Ab 0.4 ug/well
T18 construct: also called peptide 12
T18 peptide: NKLLG[Cit]VTIAQG
Method: as §1, with “histone 2A” for “fibrinogen and vimentin”

[21] = molecular target: T19, peptide no. 1 (human histone 2A) (human, also: biotin-labelled); assay: ELISA, Ab 0.4 ug/well
T19 construct: also called peptide 1; AAASGXGKQGGK
T19 peptide: AAASG[Cit]GKQGGK
Method: as §1, with “histone 2A” for “fibrinogen and vimentin”

msFibβ XG [22] = molecular target: T1, msFibβ XG; assay: ELISA, Ab 10 ug/well
Method: as §1, §2

CFC-1 [23] = molecular target: T2, CFC-1; assay: ELISA, Ab 10 ug/well
Method: as §1, §2

huFibα XH [24] = molecular target: T3, huFibα XH; assay: ELISA, Ab 10 ug/well
Method: as §1, §2

msFibα XG [25] = molecular target: T4, msFibα XG; assay: ELISA, Ab 10 ug/well
Method: as §1, §2

msFibα XH [26] = molecular target: T5, msFibα XH; assay: ELISA, Ab 10 ug/well
Method: as §1, §2

huFibα XG [27] = molecular target: T6, huFibα XG; assay: ELISA, Ab 10 ug/well
Method: as §1, §2

msVim XS/XL [28] = molecular target: T7, msVim XS/XL; assay: ELISA, Ab 10 ug/well
Method: as §1, §2

B1: RhmAb2.102 (antibody, human IgG1, lambda)
heavy: not shown
light: QSVLTQPPSMSAAPGQKVTISCSGSSSNIGNNYVSWYQQVPGTAPKLLIYDDNKRPSGIPGRFSGSKSATSATLGITGLQAGDEADYYCGSWDDNLSVVLFGGGTKLTVLGQPKAAPSVTLFPPSSEELQANKATLVCLISDFYPGAVTVAWKADSSPVKAGVETTTPSKQSNNKYAASSYLSLTPEQWKSHRSYSCQVTHEGSTVEKTVAPTECS
notes: Human IgG1 lambda; also called Rhm2.102
OD (msFibβ XG [1]): 0.133 OD450 | OD (CFC-1 [2]): 0.345 OD450 | OD (huFibα XH [3]): 0.124 OD450 | OD (msFibα XG [4]): 0.116 OD450 | OD (msFibα XH [5]): 0.088 OD450 | OD (huFibα XG [6]): 0.125 OD450 | OD (msVim XS/XL [7]): 0.154 OD450 | OD (huFibα XH [8]): 0.12 OD450 | OD [9]: 0.333 OD450 | OD [10]: 0.057 OD450 | OD (CFC-1 [11]): 3.06 OD450 | OD [12]: 0.564 OD450 | OD [13]: 0.051 OD450 | OD [14]: 0.064 OD450 | OD [15]: 0.154 OD450 | OD [16]: 0.136 OD450 | OD [17]: 0.082 OD450 | OD [18]: 0.064 OD450 | OD [19]: 0.061 OD450 | OD [20]: 0.061 OD450 | OD [21]: 2.8 OD450 | OD (msFibβ XG [22]): 3.8 OD450 | OD (CFC-1 [23]): 3.89 OD450 | OD (huFibα XH [24]): 0.179 OD450 | OD (msFibα XG [25]): 3.03 OD450 | OD (msFibα XH [26]): 0.154 OD450 | OD (huFibα XG [27]): 2.73 OD450 | OD (msVim XS/XL [28]): 3.69 OD450
